Measurements taken from US7872117.

Molecular target: murine c-Met polypeptide (Met receptor as expressed on DA3 mouse mammary adenocarcinoma cells) (mouse) (UniProt P16056)
Experiment: cell-based or functional assay

in vitro invasion through Matrigel (invading cells per filter, DA3 cells, HGF/SF 100 ng/ml) (cells per filter): 80
Substance: Hepatocyte growth factor/scatter factor (HGF/SF) (ligand)
